The chains are these.
B1: human factor H, full length (other, UniProt P08603 19-1231, looked up)
chain: EDCNELPPRRNTEILTGSWSDQTYPEGTQAIYKCRPGYRSLGNVIMVCRKGEWVALNPLRKCQKRPCGHPGDTPFGTFTLTGGNVFEYGVKAVYTCNEGYQLLGEINYRECDTDGWTNDIPICEVVKCLPVTAPENGKIVSSAMEPDREYHFGQAVRFVCNSGYKIEGDEEMHCSDDGFWSKEKPKCVEISCKSPDVINGSPISQKIIYKENERFQYKCNMGYEYSERGDAVCTESGWRPLPSCEEKSCDNPYIPNGDYSPLRIKHRTGDEITYQCRNGFYPATRGNTAKCTSTGWIPAPRCTLKPCDYPDIKHGGLYHENMRRPYFPVAVGKYYSYYCDEHFETPSGSYWDHIHCTQDGWSPAVPCLRKCYFPYLENGYNQNYGRKFVQGKSIDVACHPGYALPKAQTTVTCMENGWSPTPRCIRVKTCSKSSIDIENGFISESQYTYALKEKAKYQCKLGYVTADGETSGSITCGKDGWSAQPTCIKSCDIPVFMNARTKNDFTWFKLNDTLDYECHDGYESNTGSTTGSIVCGYNGWSDLPICYERECELPKIDVHLVPDRKKDQYKVGEVLKFSCKPGFTIVGPNSVQCYHFGLSPDLPICKEQVQSCGPPPELLNGNVKEKTKEEYGHSEVVEYYCNPRFLMKGPNKIQCVDGEWTTLPVCIVEESTCGDIPELEHGWAQLSSPPYYYGDSVEFNCSESFTMIGHRSITCIHGVWTQLPQCVAIDKLKKCKSSNLIILEEHLKNKKEFDHNSNIRYRCRGKEGWIHTVCINGRWDPEVNCSMAQIQLCPPPPQIPNSHNMTTTLNYRDGEKVSVLCQENYLIQEGEEITCKDGRWQSIPLCVEKIPCSQPPQIEHGTINSSRSSQESYAHGTKLSYTCEGGFRISEENETTCYMGKWSSPPQCEGLPCKSPPEISHGVVAHMSDSYQYGEEVTYKCFEGFGIDGPAIAKCLGEKWSHPPSCIKTDCLSLPSFENAIPMGEKKDVYKAGEQVTYTCATYYKMDGASNVTCINSRWTGRPTCRDTSCVNPPTVQNAYIVSRQMSKYPSGERVRYQCRSPYEMFGDEEVMCLNGNWTEPPQCKDSTGKCGPPPPIDNGDITSFPLSVYAPASSVEYQCQNLYQLEGNKRITCRNGQWSEPPKCLHPCVISREIMENYNIALRWTAKQKLYSRTGESVEFVCKRGYRLSSRSHTLRTTCWDGKLEYPTCAKR
notes: mature; In the serum assays (C3b deposition, hemolysis) the FH is that of normal human serum; also called FH; full length FH
B2: anti-FHR-1.3B4 (antibody, V domains shown)
VH: QVQLRQSGPGLVQPSQSLSITCTVSGFSLTNYGVYWVRQSPGKGLEWLGVIWSGGTTDYSAAFISRLSISKDNSKSQVFFKMNSLQADDTAIYYCARNFGNYAMDYWGQGTSVTVSS
VL: QIVLSQSPTILSASPGEKVTMTCRASSSVTYMHWYQQKPGSSPKPWIYATSNLASGVPARFSGSGSGTSYSLTISRVEAEDAATYYCQQRSSSNPLTFGAGTKLELK
notes: Mouse monoclonal from a hybridoma, raised against recombinant human FHR-1; also called aFHR-1 3B4
B3: anti-FH.07 (antibody, V domains shown)
VH: QVQLQQSGPGLVQPSQSLSITCTVSDFSLARYGVHWIRQSPGKGLEWLGVIWSGGTADYNAAFISRLNINKDNSKSQVFFKMNSLQANDTAIYYCARNFGNYAVDYWGQGTS
VL: QIVLSQSPTFLSASPGEKVTVTCRASSSVKYMHWYQQKPGASPKPWIFATSNLASGVPARFSGSGSGTSYSLTISRVEAEDAATYYCQQWSIIPPTFGNGTKLELK
B4: anti-FHR-1.11E1 (antibody, V domains shown)
VH: QVQLKQSGPGLVQPSQSLSITCTVSGFSLTNYGVHWVRQPPGKGLEWLGVIWSGGNTDYNAAFISRLSISKDNSKSQVFFKMNSLQADDTAIYYCAKNGDYGYTMDYWGQGTSVTVSS
VL: DVVMTQTPLSLPVSLGDQASISCRSSQSLVHSNGNTYLHWYLQKPGQSPKLLIYKLSNRFSGVPDRFSGSGSGTDFTLKISRVEAEDLGVYFCSQSTHVPFTFGSGTKLEIK
notes: Mouse monoclonal from a hybridoma, raised against recombinant human FHR-1
B5: FHR-1.14C4 (antibody, V domains shown)
VH: EVQLQQSGPELEKPGASVKISCKASGYSFTGYNMHWVKQSNGTSLEWIGKIDPYYGDTSYNQRFKGKATLTVDKSSSTAYMQLKSLTSEDSAVYYCARAFYRDYALDYWGRGTSVTVSS
VL: DIVMTQSPSSLTVTAGEKVTMSCKSSQSLFNSGNQKNYLTWYQQKPGQPPKLLIYWASTRESGVPDRFTGSGSGTDFTLTISSVQAEDLAVYYCQNDYSYPLTFGAGTKLELK
notes: as for B4

In one test the target is T1, C3b (UniProt P01024 23-667; P01024 749-1663, limits assumed).
T1 construct: C3b has two chains (beta and alpha') derived from C3; also called purified C3b (Complement Technologies)
In words: SPR (Biacore T200), C3b amine-coupled to CM5 chip, FH alone injected (10-0.01953 µM), 37 °C, equilibrium analysis; FH alone, no Fab′. Here is the method: Binding of FH to C3b in the presence of the anti-FH moAbs was determined by surface plasmon resonance using a Biacore T200 instrument (GE Healthcare, Little Chalfont, UK). Purified C3b (Complement Technologies) was immobilized onto a flow cell of a CM5 Biacore Sensor Chip (GE Healthcare) using standard amine coupling. The remaining flow cell was used as reference surface and prepared by performing a coupling reaction without the addition of any protein. A response of 2000 response units (RUs) was obtained after coupling with C3b. SPR experiments were performed at 37° C. using a flow rate of 10 μl/min and in phosphate buffered saline pH 7.4 (PBS, Orphi Farma) supplemented with 0.01% (w/v) Tween-20 (Merck) (PBS-T).
To determine the effect of the antibodies without interference of possible cross-linking via the moAb, recombinantly produced Fab′ fragments of the moAbs were used. Fab′ fragments were mixed with plasma purified FH (pdFH). […] Each Fab′ fragment was also injected without addition of FH to determine any interactions of the Fab′ fragments with the surfaces. The pdFH injection was followed by a dissociation of 60 seconds and surface was regenerated between each cycle by a single injection of 1 M NaCl (Merck).
Data was analyzed using Scrubber 2 (Biologic Software) affinities were determined by equilibrium analysis.

Test [1] concerns the target B1. In words: cell-based or functional assay.
The target of test [2] is T2, recombinant human FH fragment CCP 18-20 (human, UniProt P08603 1046-1231).
T2 construct: domain: CCP 18-20; also called fragment of FH comprised of domain 18-20
T2 sequence (looked up): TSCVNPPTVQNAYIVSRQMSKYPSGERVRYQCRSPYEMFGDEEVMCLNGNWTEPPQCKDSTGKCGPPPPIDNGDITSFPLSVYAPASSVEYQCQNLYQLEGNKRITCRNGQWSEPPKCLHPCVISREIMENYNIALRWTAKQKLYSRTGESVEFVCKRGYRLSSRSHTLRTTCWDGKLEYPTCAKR
In words: SPR (Biacore T200), mAb captured on ProtA or ProtG chip, FH CCP18-20 flowed over, 1:1 model. How it is done: (§1) Surface plasmon resonance (SPR) experiments were performed using a BiaCore T200 (GE Healthcare) and CM5 sensor chips (GE Healthcare) in accordance with the manufacturer's instructions. In short, to determine its affinity, anti-FH.07, anti-FHR-1 3B4 or anti-FHR-1 8E4 were captured onto a ProtA or ProtG coupled chip and either full length FH or a fragment of FH comprising domain 18-20 was flown over the captured moAB at decreasing concentrations.

Test [3] deals with B1. Description: SPR (Biacore T200), mAb captured on ProtA or ProtG chip, full length FH flowed over, 1:1 model. Here is the method:
as §1

Test [4] addresses B1. Description: SPR, mAb captured on a ProtA or ProtG chip, full length FH flowed over, 1:1 binding model. How it is done: as §1
The target in test [5] is T3, recombinant human FH fragment CCP 19-20 (human, UniProt P08603 1107-1231).
T3 construct: domain: CCP 19-20
T3 sequence (looked up): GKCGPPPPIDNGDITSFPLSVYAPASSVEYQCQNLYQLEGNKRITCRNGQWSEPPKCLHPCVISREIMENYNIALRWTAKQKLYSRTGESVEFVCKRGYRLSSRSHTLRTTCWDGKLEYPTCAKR
In words: competition ELISA: mAb captured on RM-19 coated plate, FH-bt mixed with unlabelled CCP 19-20. How it is done:
(§2) The location of the epitope of anti-FHR-1 mAbs was determined using recombinant human FH fragments composed of multiple CCP domains (15-18, 15-19, 18-20 or 19-20). In short, anti-FHR-1 mAbs were captured on a RM-19 coated microtiterplate to assure optimal binding conformation. Next, biotinylated FH, mixed with a 100-fold higher concentration of the indicated unlabeled recombinant FH-fragments, was incubated on the plate for 1 hour. Binding of biotinylated FH was determined by incubation with 0.01% (v/v) streptavidin conjugated with poly-HRP, in HPE for 30 min. The ELISA was further developed as described above. To determine whether the anti-FHR-1 mAbs competed with anti-FH.07 for the binding of FH, a similar set-up was used. In short, mAbs were directly coated to the plate and binding of biotinylated FH (FH-bt) in the absence or presence of a 10-fold higher concentration of indicated mAbs was assessed by ELISA as described above.

Test [6] has as its target T4, recombinant human FH fragment CCP 15-18 (human, UniProt P08603 868-1104).
T4 construct: domain: CCP 15-18
T4 sequence (looked up): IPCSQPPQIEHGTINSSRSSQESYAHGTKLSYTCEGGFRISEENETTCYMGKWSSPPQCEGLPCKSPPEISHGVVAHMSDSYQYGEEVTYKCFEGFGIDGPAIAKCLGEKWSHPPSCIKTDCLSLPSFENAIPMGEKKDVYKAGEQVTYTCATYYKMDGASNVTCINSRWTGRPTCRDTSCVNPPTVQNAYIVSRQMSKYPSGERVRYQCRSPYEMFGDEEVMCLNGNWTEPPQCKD
In words: competition ELISA: mAb captured on RM-19 coated plate, FH-bt mixed with 100-fold excess of unlabelled CCP 15-18. Here is the method:
as §2

The target in test [7] is T5, recombinant human FH fragment CCP 15-19 (human, UniProt P08603 868-1165).
T5 construct: domain: CCP 15-19
T5 sequence (looked up): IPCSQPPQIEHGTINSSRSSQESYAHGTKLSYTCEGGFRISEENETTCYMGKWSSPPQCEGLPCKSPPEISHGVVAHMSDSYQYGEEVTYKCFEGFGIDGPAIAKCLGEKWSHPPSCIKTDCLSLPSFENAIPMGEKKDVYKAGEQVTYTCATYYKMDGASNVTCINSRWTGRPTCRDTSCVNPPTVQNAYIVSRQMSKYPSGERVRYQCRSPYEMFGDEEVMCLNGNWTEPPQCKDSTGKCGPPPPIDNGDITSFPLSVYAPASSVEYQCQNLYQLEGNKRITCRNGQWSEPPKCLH
In words: competition ELISA: mAb captured on RM-19 coated plate, FH-bt mixed with 100-fold excess of unlabelled CCP 15-19. Here is the method: as §2

The target of test [8] is T2, recombinant human FH fragment CCP 18-20. In words: competition ELISA: mAb captured on RM-19 coated plate, FH-bt mixed with 100-fold excess of unlabelled CCP 18-20. How it is done: as §2
For test [9], the target named is B1. Description: competition ELISA: mAb captured on RM-19 coated plate, FH-bt mixed with excess unlabelled full length FH; % of FH-bt binding without competitor. Here is the method:
as §2

T1 sequence (P01024 23-667 limits assumed, chain 1 of 2): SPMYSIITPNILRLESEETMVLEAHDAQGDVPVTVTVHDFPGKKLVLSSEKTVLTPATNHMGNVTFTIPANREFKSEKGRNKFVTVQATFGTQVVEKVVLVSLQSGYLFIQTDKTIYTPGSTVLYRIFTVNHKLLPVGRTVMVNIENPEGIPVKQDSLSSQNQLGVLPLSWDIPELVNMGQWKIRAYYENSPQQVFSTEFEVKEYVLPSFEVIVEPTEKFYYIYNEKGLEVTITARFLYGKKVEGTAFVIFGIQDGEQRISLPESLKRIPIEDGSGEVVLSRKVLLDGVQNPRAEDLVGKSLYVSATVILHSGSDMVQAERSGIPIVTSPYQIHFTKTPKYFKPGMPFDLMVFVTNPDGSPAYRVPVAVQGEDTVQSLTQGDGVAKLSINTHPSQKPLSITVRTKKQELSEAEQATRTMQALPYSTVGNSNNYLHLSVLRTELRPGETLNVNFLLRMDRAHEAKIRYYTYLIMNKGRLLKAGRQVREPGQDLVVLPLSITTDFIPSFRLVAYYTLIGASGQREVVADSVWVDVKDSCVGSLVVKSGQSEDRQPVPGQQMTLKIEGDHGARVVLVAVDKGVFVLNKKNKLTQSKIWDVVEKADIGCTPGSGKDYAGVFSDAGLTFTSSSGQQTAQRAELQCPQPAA
T1 sequence (P01024 749-1663 limits assumed, chain 2 of 2): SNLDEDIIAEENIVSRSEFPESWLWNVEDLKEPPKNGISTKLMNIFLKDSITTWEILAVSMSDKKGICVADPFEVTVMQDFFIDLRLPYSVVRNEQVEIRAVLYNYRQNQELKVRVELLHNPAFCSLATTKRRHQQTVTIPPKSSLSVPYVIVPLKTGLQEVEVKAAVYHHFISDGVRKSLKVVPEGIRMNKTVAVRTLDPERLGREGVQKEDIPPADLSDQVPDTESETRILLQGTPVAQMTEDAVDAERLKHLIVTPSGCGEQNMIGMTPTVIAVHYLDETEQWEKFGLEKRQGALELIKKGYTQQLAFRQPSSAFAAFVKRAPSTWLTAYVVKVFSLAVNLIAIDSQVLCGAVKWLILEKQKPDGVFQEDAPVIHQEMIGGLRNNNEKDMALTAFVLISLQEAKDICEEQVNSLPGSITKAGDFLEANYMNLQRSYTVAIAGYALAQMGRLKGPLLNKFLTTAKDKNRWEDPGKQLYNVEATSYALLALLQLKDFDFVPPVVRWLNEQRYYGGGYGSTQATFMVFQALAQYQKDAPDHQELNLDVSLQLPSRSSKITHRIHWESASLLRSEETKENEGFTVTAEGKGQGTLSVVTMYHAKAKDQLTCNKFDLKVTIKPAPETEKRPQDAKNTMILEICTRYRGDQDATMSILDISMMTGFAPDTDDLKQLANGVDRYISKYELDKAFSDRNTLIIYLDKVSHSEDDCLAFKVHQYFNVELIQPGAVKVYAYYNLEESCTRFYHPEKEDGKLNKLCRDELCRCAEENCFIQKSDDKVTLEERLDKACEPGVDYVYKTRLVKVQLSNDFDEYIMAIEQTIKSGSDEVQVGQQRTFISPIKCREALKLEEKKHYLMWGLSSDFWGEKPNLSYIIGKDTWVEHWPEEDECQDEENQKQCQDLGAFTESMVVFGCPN

In the test with C3b, B1 yielded a Kd of 6000 nM.
Take B2: in test [1], the “IC50 (nM), Hemolytic assay” value was determined as 94 nM and the “IC50 (nM), LPS C3b dep. assay” value is 38.4 nM. In addition, in [2], the equilibrium dissociation constant (Kd) turned out to be 0.00544 nM, the koff was determined as 1.27e-05 s⁻¹ and the on-rate constant (kon) was 2.39e+06 M⁻¹ s⁻¹. In test [3], binding was characterised by a dissociation constant (Kd) of 5.8 nM, the koff amounted to 9.1e-05 s⁻¹ and the kon came to 15800 M⁻¹ s⁻¹. This molecule also showed a Kd in [4] of 5.77 nM. In addition, the binding result in test [5] was “no binding”.
For B3, in test [1], the “IC50 (nM), Hemolytic assay” value is 153 nM and the “IC50 (nM), LPS C3b dep. assay” value came out at 38.8 nM. In test [2], the Kd worked out at 0.32 nM, the dissociation rate constant (koff) worked out at 0.00027 s⁻¹ and the on-rate constant (kon) stood at 833000 M⁻¹ s⁻¹. Besides, in test [3], binding was put at a Kd of 29.7 nM, the off-rate constant (koff) is 0.000181 s⁻¹ and the on-rate constant (kon) amounted to 6090 M⁻¹ s⁻¹. Also, the binding result in test [5] is recorded as “no binding”.
Take B4: in test [1], the “IC50 (nM), LPS C3b dep. assay” value was found to be 25 nM. For the same molecule, the binding result in [5] is on record as “no binding”.
As to B5, the binding result in test [5] is on record as “no binding”; in [6], “binds”; in test [7] it was “binds”; in test [8] it was “binds”; in [9] it was “binds”.
